Target: T1, wild-type DENV2 16681 prM/E expressed in HEK-293T cells (Dengue virus 2, strain 16681, UniProt P29990)
T1 construct: also called WT DENV2 E protein; wild-type prM/E
Test: flow cytometry on cells
Details: one partner purified

B1: F25.S02 IgG1 (antibody, V domains shown)
VH: QVQLVQSGAEVKKPGSSAKVSCKASGGTFSSYAISWVRQAPGQGLEWMGSIMPIFGTVNYAQKFQGRVTITADESTSTAYMELSRLRSEDTAVYFCARGWGGNYRSADLWIYFDLWGQGTLVTVSS
VL: QSALTQPRSVSGSPGQSVTISCTGTSSDVGGYKYVSWYQQHPGKAPKLMIYDVTKRPSGVPDRFSGSKSGNTASLTISGLQADDEADYYCCSYAGSYTHVVFGGGTKLTVL
binding result: binds

Source: PMC10586629, “Single B cell transcriptomics identifies multiple isotypes of broadly neutralizing antibodies against flaviviruses” (PLOS Pathogens, 2023)
